The values below come from PMC10521975, “Species-specific cleavage of cGAS by picornavirus protease 3C disrupts mitochondria DNA-mediated immune sensing”.

The data set deals with T1, pcGAS full-length (pcGASFL) (Sus scrofa (porcine), UniProt I3LM39 1-495).
T1 sequence: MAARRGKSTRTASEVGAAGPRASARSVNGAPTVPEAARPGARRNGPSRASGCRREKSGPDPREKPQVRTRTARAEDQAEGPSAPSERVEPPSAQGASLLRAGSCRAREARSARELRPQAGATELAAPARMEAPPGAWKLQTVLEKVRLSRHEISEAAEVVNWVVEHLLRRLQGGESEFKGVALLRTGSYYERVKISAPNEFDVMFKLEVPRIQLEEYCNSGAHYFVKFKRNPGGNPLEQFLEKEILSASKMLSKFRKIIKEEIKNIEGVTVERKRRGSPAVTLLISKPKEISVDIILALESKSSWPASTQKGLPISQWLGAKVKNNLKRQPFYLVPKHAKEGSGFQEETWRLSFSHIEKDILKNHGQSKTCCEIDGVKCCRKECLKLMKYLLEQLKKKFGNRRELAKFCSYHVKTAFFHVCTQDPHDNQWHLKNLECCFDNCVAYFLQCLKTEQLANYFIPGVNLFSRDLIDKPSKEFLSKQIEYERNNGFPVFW
Briefly: EMSA; pcGAS dose series; EMSA: 50 uM ISD45, pcGAS at DNA:protein 1:1 to 1:32, RT 1 h, 1% agarose in 40 mM Tris-HCl pH 9.2; pull-down: pcGAS + 3C in 50 mM HEPES pH 7.5, 3 mM EDTA, 150 mM NaCl, 0.005% Tween-20, 10 mM DTT at 37 C 2 h, then 4 h with HSV60 streptavidin beads. The conditions noted are these: protein: recombinant; tags: N-term His6-SUMO-FLAG, C-term HA (SUMO kept on full-length protein); blunt. (Mobility shift assays separate free from complexed probe on a gel.)

B1: ISD45 (dsDNA)
DNA 1: TACAGATCTACTAGTGATCTATGACTGATCTGTACATGATCTACA
DNA 2: TGTAGATCATGTACAGATCAGTCATAGATCACTAGTAGATCTGTA
As to B1, the binding result was “binds”.
